Test results reported in IntAct's records for PubMed 15020713.

B1: Rabenosyn-5 (Homo sapiens), Q9H1K0 (parent)
chain: MASLDDPGEVREGFLCPLCLKDLQSFYQLHSHYEEEHSGEDRDVKGQIKSLVQKAKKAKDRLLKREGDDRAESGTQGYESFSYGGVDPYMWEPQELGAVRSHLSDFKKHRAARIDHYVVEVNKLIIRLEKLTAFDRTNTESAKIRAIEKSVVPWVNDQDVPFCPDCGNKFSIRNRRHHCRLCGSIMCKKCMELISLPLANKLTSASKESLSTHTSPSQSPNSVHGSRRGSISSMSSVSSVLDEKDDDRIRCCTHCKDTLLKREQQIDEKEHTPDIVKLYEKLRLCMEKVDQKAPEYIRMAASLNAGETTYSLEHASDLRVEVQKVYELIDALSKKILTLGLNQDPPPHPSNLRLQRMIRYSATLFVQEKLLGLMSLPTKEQFEELKKKRKEEMERKRAVERQAALESQRRLEERQSGLASRAANGEVASLRRGPAPLRKAEGWLPLSGGQGQSEDSDPLLQQIHNITSFIRQAKAAGRMDEVRTLQENLRQLQDEYDQQQTEKAIELSRRQAEEEDLQREQLQMLRERELEREREQFRVASLHTRTRSLDFREIGPFQLEPSREPRTHLAYALDLGSSPVPSSTAPKTPSLSSTQPTRVWSGPPAVGQERLPQSSMPQQHEGPSLNPFDEEDLSSPMEEATTGPPAAGVSLDPSARILKEYNPFEEEDEEEEAVAGNPFIQPDSPAPNPFSEEDEHPQQRLSSPLVPGNPFEEPTCINPFEMDSDSGPEAEEPIEEELLLQQIDNIKAYIFDAKQCGRLDEVEVLTENLRELKHTLAKQKGGTD
partner: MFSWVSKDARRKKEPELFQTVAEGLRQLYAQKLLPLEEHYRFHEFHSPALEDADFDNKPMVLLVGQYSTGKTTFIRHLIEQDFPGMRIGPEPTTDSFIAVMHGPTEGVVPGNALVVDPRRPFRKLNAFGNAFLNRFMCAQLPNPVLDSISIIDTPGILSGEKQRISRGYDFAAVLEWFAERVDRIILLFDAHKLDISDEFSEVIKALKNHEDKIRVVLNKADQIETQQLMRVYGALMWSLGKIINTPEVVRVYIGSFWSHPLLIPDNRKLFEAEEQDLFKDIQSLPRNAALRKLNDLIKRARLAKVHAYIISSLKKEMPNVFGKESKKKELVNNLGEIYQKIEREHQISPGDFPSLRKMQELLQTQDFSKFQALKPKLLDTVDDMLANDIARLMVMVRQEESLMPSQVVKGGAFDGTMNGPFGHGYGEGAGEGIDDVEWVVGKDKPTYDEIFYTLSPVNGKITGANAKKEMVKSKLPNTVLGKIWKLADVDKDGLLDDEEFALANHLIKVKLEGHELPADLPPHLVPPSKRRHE
B2: EH domain-containing protein 1 (Homo sapiens), Q9H4M9 (parent)
chain: B1 partner
partner: B1 chain

Variants of: B1
Conditions: with ehd1_human EHD1, Q9H4M9

Row | Variant | effect of a mutation on the interaction
1 | N662A;F664A | decreasing interaction strength
2 | N626A;F628A | decreasing interaction strength
3 | N626A;F628A;N662A;F664A | disrupting interaction strength

Variants of: B2
Conditions: with rbns5_human RBSN

Row | Variant | effect of a mutation on the interaction
4 | W485A | disrupting interaction
